Measurements taken from patent US20230220073A1 (UCL BUSINESS, published 2023).
Positions count from the first letter of the chain named. One block for each binder: values may come before it.

How the values were obtained:
[1] = target: T1, ROR1, full extracellular region, on transduced SUP-T1 cells (UniProt Q01973 30-406); test: flow cytometry, ROR1-transduced cells, single staining; Q1 = ahFc+ only; amFc+ahFc alone Q1 0.060 (FIG. 7A)
T1 construct: extracellular domain; also called eROR1; extracellular ROR1

[2] = target: T2, ROR1 Frizzled domain alone, on transduced SUP-T1 cells (human, UniProt Q01973 165-299); test: flow cytometry, transduced SUP-T1 cells, anti-human Fc-Dylight647
T2 construct: domain: Fz; also called Fz; ROR1-Fz domain
Method: (§1) FIG. 1A-FIG. 1C: Identification of ROR1 binding domain: FIG. 1A: SUP-T1 cells were transduced with retroviral vectors containing either the full extracellular portion of ROR1 or only one or two extracellular domains. Non-transduced SUP-T1 (SUP-T1 NT) cells served as negative control. FIG. 1B: All 12 chimeric antibodies and FIG. 1C all 10 positive clones in scFv format were incubated with SUP-T1 NT and the new stable cell lines at 4° C. for 30 min. Cells were washed and stained with a secondary antibody (anti-human Fc-Dylight647), which was used as negative control. eROR1=extracellular ROR1, Ig-like=Immunoglobulin-like domain, Fz=Frizzled domain, Kg=Kringle domain.

[3] = target: T3, Kringle (Kg) (human, UniProt Q01973); test: as above
T3 construct: also called ROR1 Kringle domain alone, on transduced SUP-T1 cells
Method: as §1

[4] = target: T4, Fz+Kg (human, UniProt Q01973); test: as above
T4 construct: also called ROR1 Frizzled+Kringle domains, on transduced SUP-T1 cells
Method: as §1

[5] = target: T5, Histidine-tagged ROR1 protein (extracellular region) (UniProt Q01973 30-406); test: SPR, Biacore X100; antibody captured by anti-human IgG1 on CM5 chip, His-tagged ROR1 extracellular portion injected at 1.5-100 nM
T5 construct: extracellular domain; also called extracellular portion of ROR1 bearing a Histidine tag; not shown: Histidine tag
Method: FIG. 3: KD determination by surface plasmon resonance. Sensorgrams obtained using a Biacore X100 instrument are shown. Briefly, ROR1 antibodies were immobilized using a CM5 chip and seven different concentrations of the Histidine-tagged ROR1 protein (extracellular region) were injected. Concentrations ranged from […].
We undertook surface plasmon resonance evaluation using a Biacore X100 instrument. ROR1 chimeric antibodies were immobilised using an anti-human IgG1 antibody capture kit and a CM5 sensor chip. Seven different concentrations, ranging from 1.5-100 nM, of the extracellular portion of ROR1 bearing a Histidine tag were then injected.

[6] = target: T1, ROR1, full extracellular region, on …; test: flow cytometry, ROR1-transduced cells, single staining; Q1 = ahFc+ only; amFc+ahFc alone Q1 0.060
Description: FIG. 7A-FIG. 7C: Competition assay by flow cytometry. Clone A (SA1) in murine IgG2a, k (mSA1) along with other ROR1 MAbs in human IgG1, k-including previously published 4a5, D10 and R12 clones—were used for staining ROR1-transduced cells. MAb staining was done as FIG. 7A-FIG. 7B: single agents or FIG. 7C: in combination with clone A (mSA1). Anti-human IgG (450) and anti-mouse IgG (DyLight649) were used as secondary antibodies. Combined staining using clones F and mSA1 acted as negative control for overlapping epitopes.
In FIG. 7C, three different columns are presented. Dot plots on the first column correspond to ROR1 binding assessed when SUP-T1 ROR1 cells were stained with clone A (SA1) (mIgG) in the first instance. After a washing step, cells were stained with a competitor antibody (hIgG), followed by another washing step. Both antibodies were then detected by a third staining step using the appropriate secondary antibodies. In the second column, a similar approach was taken when staining these cells, except that this time it was the antibody in hIgG1, k format the one used for the first staining step, followed by clone A (SA1) staining. On the third column, both antibodies were used at the same time.

T4 sequence (Q01973 165-391 limits assumed): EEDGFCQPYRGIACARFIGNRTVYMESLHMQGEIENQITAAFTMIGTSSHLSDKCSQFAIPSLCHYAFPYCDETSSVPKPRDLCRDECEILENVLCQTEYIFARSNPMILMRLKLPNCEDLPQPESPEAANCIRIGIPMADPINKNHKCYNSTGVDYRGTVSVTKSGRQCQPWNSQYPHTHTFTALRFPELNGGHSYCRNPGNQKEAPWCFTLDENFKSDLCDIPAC
T2 sequence (Q01973 165-299): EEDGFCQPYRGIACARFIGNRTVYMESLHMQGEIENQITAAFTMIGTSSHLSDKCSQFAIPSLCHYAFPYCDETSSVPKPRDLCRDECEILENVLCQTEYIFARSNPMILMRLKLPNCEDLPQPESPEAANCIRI
T3 sequence (Q01973 312-391 limits assumed): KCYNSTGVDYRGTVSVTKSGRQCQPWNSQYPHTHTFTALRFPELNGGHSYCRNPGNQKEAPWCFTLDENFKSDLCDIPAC
T1 sequence (Q01973 30-406): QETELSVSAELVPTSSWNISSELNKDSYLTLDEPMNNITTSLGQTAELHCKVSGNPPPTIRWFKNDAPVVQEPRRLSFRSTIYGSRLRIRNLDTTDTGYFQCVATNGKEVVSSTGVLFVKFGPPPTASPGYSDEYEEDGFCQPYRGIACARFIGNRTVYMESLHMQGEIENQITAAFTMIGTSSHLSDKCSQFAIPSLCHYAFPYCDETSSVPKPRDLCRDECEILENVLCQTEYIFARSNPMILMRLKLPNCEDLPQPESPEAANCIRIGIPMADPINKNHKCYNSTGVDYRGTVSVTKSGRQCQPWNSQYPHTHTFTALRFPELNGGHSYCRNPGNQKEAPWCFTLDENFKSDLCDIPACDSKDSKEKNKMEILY
T5 sequence (Q01973 30-406): as above

- Q1 quadrant figure [1]: 84.3
B1: D10 (previously published ROR1 antibody, the prototype of Cirmtuzumab) (antibody, V domains shown)
VH: QVQLKESGPGLVAPSQTLSITCTVSGFSLTSYGVHWVRQPPGKGLEWLGVIWAGGFTNYNSALKSRLSISKDNSKSQVLLKMTSLQTDDTAMYYCARRGSSYSMDYWGQGTSVIVSS
VL: EIVLSQSPAITAASLGQKVTITCSASSNVSYIHWYQQRSGTSPRPWIYEISKLASGVPVRFSGSGSGTSYSLTISSMEAEDAAIYYCQQWNYPLITFGSGTKLEIQ

- binding result [2]: no binding
- binding result [3]: no binding
- binding result [4]: no binding
- Kd [5]: 1.5 nM
- koff [5]: 0.000698 s⁻¹
- kon [5]: 464000 M⁻¹ s⁻¹
B2: Clone B chimeric ROR1 antibody (antibody, V domains shown)
VH: DVQLEESGGGLVRPGRSLKLSCADSGVNFSNRGMAWVRQAPTKGLEWVATISYDGRIIYYRDSVKGRFSISRENAKSTLYLQMDSLRSEDTATYYCARHPIAADWYFDFWGPGTMVTVSS
VL: DIRMTQSPASLSASLGETVTIECLTSEDIYSDLAWFQQKPGKSPQLLIYDANSLQNGVPSRFGGCGSGTQYSLQISSLQSEDVATYFCQQYKNYPPTFGGGTKLVLK
notes: also called B5

- Q1 quadrant figure [6]: 96.7
- binding result [2]: no binding
- binding result [3]: no binding
- binding result [4]: no binding
- Kd [5]: 2.61 nM
- koff [5]: 0.000416 s⁻¹
- kon [5]: 159000 M⁻¹ s⁻¹
B3: Clone G5 chimeric ROR1 antibody (antibody, V domains shown)
VH: EVQVVESGGGLVQPGRSLKLSCVPSGFTFNNYWMTWIRQAPGKAPEWVASISNTGGSTFYPDSVRGRFSISRDNTKGTLYLHMTSLRSEDTATYYCIRNMDAWGQGTSVTVSS
VL: DIQLTQSPSTLSASLGERVTISCRASQSISNSLNWYQQKPDGTVKRLIYSTSTLESGVPSRFSGSGSGTDFSLSISSLESEDFAMYYCLQFATYPQVTFGSGTKLEIK

- Q1 quadrant figure [6]: 96.1
- binding result [2]: no binding
- binding result [3]: no binding
- binding result [4]: no binding
- Kd [5]: 2.45 nM
- koff [5]: 0.000266 s⁻¹
- kon [5]: 109000 M⁻¹ s⁻¹
B4: Clone G3 chimeric ROR1 antibody (antibody, V domains shown)
VH: EVQLQESGPGLVKPAQSLSLTCSVTGYSITNMYRWNWIRKFPGNKLEWMGYINTAGSTDYSPSLRGRVSITGDTSKNQFFLHLTSVTTEDTATYYCAGFITNPFDFWGQGVMVTVSS
VL: DVVMTQTPVSLPVSLGGQVSISCRSSQSLEHSNGDTFLHWYLQKPGQSPRLLIYRVSNRFSGVPDRFSGSGSGTDFTLKISRIEPEDLGDYYCLQSTHFPNTFGAGTKLELK

- Q1 quadrant figure [1]: 96.9
B5: R12 (previously published ROR1 antibody) (antibody, V domains shown)
VH: QEQLVESGGRLVTPGGSLTLSCKASGFDFSAYYMSWVRQAPGKGLEWIATIYPSSGKTYYATWVNGRFTISSDNAQNTVDLQMNSLTAADRATYFCARDSYADDGALFNIWGPGTLVTISS
VL: ELVLTQSPSVSAALGSPAKITCTLSSAHKTDTIDWYQQLQGEAPRYLMQVQSDGSYTKRPGVPDRFSGSSSGADRYLIIPSVQADDEADYYCGADYIGGYVFGGGTQLTVTG

- Q1 quadrant figure [1]: 96.9
B6: 4a5 (previously published ROR1 antibody) (antibody, V domains shown)
VH: EVKLVESGGGLVKPGGSLKLSCAASGFTFSSYAMSWVRQIPEKRLEWVASISRGGTTYYPDSVKGRFTISRDNVRNILYLQMSSLRSEDTAMYYCGRYDYDGYYAMDYWGQGTSVTVSS
VL: DIKMTQSPSSMYASLGERVTITCKASPDINSYLSWFQQKPGKSPKTLIYRANRLVDGVPSRFSGGGSGQDYSLTINSLEYEDMGIYYCLQYDEFPYTFGGGTKLEMK

- binding result [2]: no binding
- binding result [3]: no binding
- binding result [4]: no binding
- Kd [5]: 3.5 nM
- koff [5]: 0.000607 s⁻¹
- kon [5]: 174000 M⁻¹ s⁻¹
B7: Clone O chimeric ROR1 antibody (antibody, V domains shown)
VH: QVRLLQSGAALVKPGASVKMSCKASGYTFTDYWMSWVKQSHGKSLEWIGEIYPNSGATNFNEKFKDKATLTVDRSTSTAYMELSRLTSEDSAIYYCARGFPNNYLSWFAYWGQGTLVTVSS
VL: DIVLTQSPALAVSLEQRVTIACKTSQNVDNHGISYMHWYQQKSGQEPKLLIYEGSNLAVGIPARFSGSGSGTDFTLTIDPVEADDIETYYCQQSKDDPRTFGGGTKLELK

- binding result [2]: no binding
- binding result [3]: no binding
- binding result [4]: no binding
- Kd [5]: 2.44 nM
- koff [5]: 0.00051 s⁻¹
- kon [5]: 209000 M⁻¹ s⁻¹
B8: Clone I chimeric ROR1 antibody (antibody, V domains shown)
VH: EVQLVESGGGSVQPGRSLKLSCAASGFTFSDYNMAWVRQAPKKGPEWVATITYDVHNAYYRDSVKGRFTISRDDAKSTLYLQMDSLRSEDTATYFCARPGAYWGQGTLVTVSS
VL: DIQLTQSPSSMSASLGDRVSLTCQSSQGIGKYLSWYQHKPGKPPKAMIYYATKLADGVPSRFSGSRSGSDFSLTISSLESEDIAIYYCLQFDDYPWTFGGGTKLELK

- binding result [2]: no binding
- binding result [3]: no binding
- binding result [4]: no binding
- Kd [5]: 3.35 nM
- koff [5]: 0.000835 s⁻¹
- kon [5]: 249000 M⁻¹ s⁻¹
B9: Clone J chimeric ROR1 antibody (antibody, V domains shown)
VH: DVKLVESGGGLLKPGGSLKLSCVASGFSFSKYWMHWVRQAPGQGLEWIAEIEYDGTETNYAPSIKDRFTISRDNAKNTLYLQMSNVRFEDAATYFCTTEEMHTTDYYYGFAYWGQGTLVTVSS
VL: DIVLTQSPALAVSVGQRATISCRASQSVSISRYDFMHWYQQKPGQQPKLLIYRASNLASGIPARFSGSGSGTDFTLTINPVQADDIATYYCQQNRESPRTFGGGTKLELK
notes: also called J6

- binding result [2]: no binding
- binding result [3]: no binding
- binding result [4]: no binding
- Kd [5]: 2.04 nM
- koff [5]: 0.000849 s⁻¹
- kon [5]: 417000 M⁻¹ s⁻¹
B10: Clone E7 chimeric ROR1 antibody (antibody, V domains shown)
VH: GKLVESGGGLLKPGGSLKLSCVASGFTFDKYWMHWVRQAPGKGLEWIAEIEYDGTETNYAPSIKDRFTISRDNAKNTLYLQMSNVRSEDAATYFCTTEEMYTTDYYYGFAYWGQGTLVTVSS
VL: B9 VL with D34N

- binding result [2]: no binding
- binding result [3]: no binding
- binding result [4]: no binding
- Kd [5]: 1.98 nM
- koff [5]: 0.000349 s⁻¹
- kon [5]: 176000 M⁻¹ s⁻¹
B11: Clone Pi chimeric ROR1 antibody (antibody, V domains shown)
VH: EVQLVESGGGLVQPGRSLTLSCSASGFTFRDYNMAWVRQAPRKGLEWVATISFDDYNTYYRDSVKGRFTISRDDAKSTLYLQMDSLRSEDTATYYCARPGTYWGQGTLVTVSS
VL: DIQLTQSPSSLSASLGDRVSLTCQSSQGIGKYLSWFQHKPGKPPKPVINYATNLADGVPSRFSGRRSGSDFSLTISSLESEDTAIYYCLQFDDFRWTVGGGTKLELK
